# Data: patent US20210355194A1 (TWIST BIOSCIENCE, published 2021)
# B1: 10-1 (VHH)
# VHH: EVQLVESGGGLVQPGGSLRLSCAASGLSSPPFDDFPMGWFRQAPGKEREFVSSIYSDDGDSMYADSVKGRFTISADNSKNTAYLQMNSLKPEDTAVYYCARQTFDFWSASLGGNFWYFDLWGQGTLVTVSS
# B2: 10-44 (VHH)
# VHH: EVQLVESGGGLVQPGGSLRLSCAASGRTFRRYTMGWFRQAPGKEREFVAVISWSGGSTKYADSVKGRFTISADNSKNTAYLQMNSLKPEDTAVYYCARKGRWSGMNVWGQGTLVTVSS
# B3: 10-43 (VHH)
# VHH: EVQLVESGGGLVQPGGSLRLSCAASGRTFRRYHMGWFRQAPGKEREFVAAITSGGRTNYADSVKGRFTISADNSKNTAYLQMNSLKPEDTAVYYCTTDGLRYFDWFPWASAFDIWGQGTLVTVSS
# B4: 10-51 (VHH)
# VHH: EVQLVESGGGLVQPGGSLRLSCAASGRFFSTRVMGWFRQAPGKEREFVARIWPGGSTYYADSVKGRFTISADNSKNTAYLQMNSLKPEDTAVYYCARDRGIFGVSRWGQGTLVTVSS
# B5: 9-2 (VHH)
# VHH: EVQLVESGGGLVQPGGSLRLSCAASGSFSIAAMGWFRQAPGKEREFVATINYSGGGTYYADSVKGRFTISADNSKNTAYLQMNSLKPEDTAVYYCAAVNTFDESAYAAFACYDVVWGQGTLVTVSS
# B6: 10-2 (VHH)
# VHH: EVQLVESGGGLVQPGGSLRLSCAASGGTFSSYSMGWFRQAPGKEREFVSAISWIIGSGGTTNYADSVKGRFTISADNSKNTAYLQMNSLKPEDTAVYYCTAGAGDSWGQGTLVTVSS
# B7: 10-56 (VHH)
# VHH: EVQLVESGGGLVQPGGSLRLSCAASGHTFRNYGMGWFRQAPGKEREFVAAITSSGSTNYADSVKGRFTISADNSKNTAYLQMNSLKPEDTAVYYCATVPPPRRFLEWLPRRLTYTWGQGTLVTVSS
# B8: 9-10 (VHH)
# VHH: EVQLVESGGGLVQPGGSLRLSCAASGRMFSSRSMGWFRQAPGKEREFVALINRSGGSQFYADSVKGRFTISADNSKNTAYLQMNSLKPEDTAVYYCAARRWIPPGPIWGQGTLVTVSS
# B9: 9-6 (VHH)
# VHH: EVQLVESGGGLVQPGGSLRLSCAASGRTFSRFAMGWFRQAPGKEREFVAAIRWSGGRTVYADSVKGRFTISADNSKNTAYLQMNSLKPEDTAVYYCAIEPGTIRNWRNRVPFARGNFGWGQGTLVTVSS
# B10: 10-6 (VHH)
# VHH: EVQLVESGGGLVQPGGSLRLSCAASGTTLTFRIMGWFRQAPGKEREFVPAISSTGLASYTDSVKGRFTISADNSKNTAYLQMNSLKPEDTAVYYCSKDRAPNCFACCPNGFDVWGQGTLVTVSS
# B11: 10-60 (VHH)
# VHH: EVQLVESGGGLVQPGGSLRLSCAASGIPASMYLGWFRQAPGKEREFVAAITSGGRTSYADSVKGRFTISADNSKNTAYLQMNSLKPEDTAVYYCAKRKKRGPLWFGGGGWGYWGQGTLVTVSS
# B12: 10-29 (VHH)
# VHH: EVQLVESGGGLVQPGGSLRLSCAASGRTFTSYRMGWFRQAPGKEREFVAEISSSGGYTYYADSVKGRFTISADNSKNTAYLQMNSLKPEDTAVYYCARVGPLRFLAQRPRLRPDYWGQGTLVTVSS
# B13: 10-19 (VHH)
# VHH: EVQLVESGGGLVQPGGSLRLSCAASGRTFRSYGMGWFRQAPGKEREFVASISRSGTTMYADSVKGRFTISADNSKNTAYLQMNSLKPEDTAVYYCARRGLLQWFGAPNSWFDPWGQGTLVTVSS
# B14: variant 2-1 (antibody, V domains shown)
# VH: EVQLLESGGGLVQPGGSLRLSCAASGFTFSNYATDWVRQAPGKGLEWVSIISGSGGATYYADSVKGRFTISRDNSKNTLYLQMNSLRAEDTAVYYCAKGGYCSSDTCWWEYWLDPWGQGTLVTVSS
# VL: DIQMTQSPSSLSASVGDRVTITCRASQSIHRFLNWYQQKPGKAPKLLIYAASNLHSGVPSRFSGSGSGTDFTLTISSLQPEDFATYYCQQSYGLPPTFGQGTKVEIK
# B15: variant 6-13 (Fc fusion)
# VHH: EVQLVESGGGLVQPGGSLRLSCAASGLTFNDYAMGWFRQAPGKEREFVAHIPRSTYSPYYADSVKGRFTISADNSKNTAYLQMNSLKPEDTAVYYCAFLVGPQGVDHGAFDVWGQGTLVTVSS
# B16: variant 5-8 (Fc fusion)
# VHH: EVQLVESGGGLVQPGGSLRLSCAASGRPFSEYTMGWFRQAPGKEREFVSSIHWGGRGTNYADSVKGRFTISADNSKNTAYLQMNSLKPEDTAVYYCAAELHSSDYTSPGAYAWGQGTLVTVSS
# B17: variant 5-51 (Fc fusion)
# VHH: EVQLVESGGGLVQPGGSLRLSCAASGRPNSINWMGWFRQAPGKERQFVATITPGGNTNYADSVKGRFTISADNSKNTAYLLMNSLKPEDTAVYYCAAAAGTTWYGTLYEYDWGQGTLVTVSS
# B18: variant 6-24 (Fc fusion)
# VHH: EVQLVESGGGLVQPGGSLRLSCAASGFTLDYYAMGWFRQAPGKEREFVAAINWSGDNTHYADSVKGRFTISADNSKNTAYLQMNSLKPEDTAVYYCARAPFYCTTTKCQDNYYYMDVWGQGTLVTVSS
# B19: variant 6-42 (Fc fusion)
# VHH: EVQLVESGGGLVQPGGSLRLSCAASGDTYGSYWMGWFRQAPGKEREFVAVITSGGSTNYADSVKGRFTISADNSKNTAYLQMNSLKPEDTAVYYCTHVQNSYYYAMDVWGQGTLVTVSS
# B20: variant 5-63 (Fc fusion)
# VHH: EVQLVESGGGLVQPGGSLRLSCAASGFSLDYYDMGWFRQAPGKEREFVAALGWSGGSTDYADSVKGRFTISADNSKNTAYLQMNSLKPEDTAVYYCAAGNGGRYGIVERWGQGTLVTVSS
# B21: variant 6-82 (Fc fusion)
# VHH: EVQLVESGGGLVQPGGSLRLSCAASGSSLDAYGMGWFRQAPGKEREFVAAISWGGGSIYYADSVKGRFTISADNSKNTAYLQMNSLKPEDTAVYYCARLSQGMVALDYWGQGTLVTVSS
# B22: variant 5-38 (Fc fusion)
# VHH: EVQLVESGGGLVQPGGSLRLSCAASGRTFSMHAMGWFRQAPGKERELVASISSQGRTNYADSVKGRFTISADNSKNTAYLQMNSLKPEDTAVYYCAAEVRNGSDYLPIDWGQGTLVTVSS
# B23: variant 6-91 (Fc fusion)
# VHH: EVQLVESGGGLVQPGGSLRLSCAASGRTFGNYAMGWFRQAPGKEREFVASISSSGVSKHYADSVKGRFTISADNSKNTAYLQMNSLKPEDTAVYYCVRFGSSWARDLDQWGQGTLVTVSS
# B24: variant 5-32 (Fc fusion)
# VHH: EVQLVESGGGLVQPGGSLRLSCAASGFTPDNYAMGWFRQAPGKEREFVAALGWSGVTTYHYYADSVKGRFTISADNSKNTAYLQMNSLKPEDTAVYYCASDESDAANWGQGTLVTVSS
# B25: variant 6-6 (Fc fusion)
# VHH: EVQLVESGGGLVQPGGSLRLSCAASGTTLDYYAMGWFRQAPGKERELVAAISWSGGSTAYADSVKGRFTISADNSKNTAYLQMNSLKPEDTAVYYCAREDYYDSSGYSWGQGTLVTVSS
# B26: variant 6-32 (Fc fusion)
# VHH: EVQLVESGGGLVQPGGSLRLSCAASGFTLDYYDMGWFRQAPGKEREFVALISWSGGSTYYADSVKGRFTISADNSKNTAYLQMNSLKPEDTAVYYCATDFYGWGTRERDAFDIWGQGTLVTVSS
# B27: variant 6-22 (Fc fusion)
# VHH: EVQLVESGGGLVQPGGSLRLSCAASGRTFSEVVMGWFRQAPGKEREFVATIHSSGSTSYADSVKGRFTISADNSKNTAYLQMNSLKPEDTAVYYCVRVTSDYSMDSWGQGTLVTVSS
# Target: SARS-CoV-2 membrane protein on expressing cells (SARS-CoV-2, UniProt P0DTC5 1-222)
# Assay: not given
row,Binder,MFI Ratio
1,B1,1.08
2,B2,1.46
3,B3,1.55
4,B4,1.47
5,B5,1.3
6,B6,1.25
7,B7,1.39
8,B8,1.52
9,B9,1.47
10,B10,1.08
11,B11,1.14
12,B12,1.48
13,B13,1.54

# Target: T1, COVID S1 RBM Fc fusion (Antigen 2) (SARS-CoV-2, UniProt P0DTC2 437-508)
# T1 construct: domain: S1 RBM
# Assay: phage ELISA
Binder,"specificity ELISA, fold over background [fold over background]","specificity ELISA, percent binding relative to Acro S1 [%]"
B14,1.5,3.9

# Target: T2, COVID S1 RBD Fc fusion (Antigen 1) (SARS-CoV-2, UniProt P0DTC2 319-541)
# T2 construct: domain: S1 RBD
# Assay: phage ELISA
Binder,"specificity ELISA, fold over background [fold over background]","specificity ELISA, percent binding relative to Acro S1 [%]"
B14,36.8,93.7

# Target: SARS-CoV-2 spike on live SARS-CoV-2 virus (SARS-CoV-2, UniProt P0DTC2 14-1273)
# Assay: cell-based or functional assay
row,Binder,EC80 [µg/mL]
1,B15,25.7
2,B16,15.8
3,B17,388
4,B18,31.4
5,B19,0.734
6,B20,14.2
7,B21,108
8,B22,1.5
9,B23,240
10,B24,180
11,B25,24.4
12,B26,60.6
13,B27,103

# Target: T3, Acro SARS-CoV-2 (COVID-19) S1 protein (SARS-CoV-2, UniProt P0DTC2 16-685)
# T3 construct: also called SARS-CoV-2 S1
# Assay: SPR
row,Binder,Kd [nM]
1,B15,25.3
2,B17,25.5
3,B18,29.9
4,B19,10.1
5,B20,10.5
6,B21,7.1
7,B24,22.4
8,B25,6.4
9,B26,27.2
10,B27,25.6
